Tested on: Escherichia coli TOP10
Assay: shrunken log2 fold change of peptide-encoding DNA abundance (4.5 h post-induction vs induction); higher = less antimicrobial activity (less host growth inhibition)
Details: time post-induction: 4.5 h; library: site-saturation at positions 5, 18, 19, 20
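Note: peptides expressed intracellularly from a pBAD plasmid library in pooled LB shake-flask culture, induced with 0.3% L-arabinose, DNA abundance read by NGS, three biological replicates, DESeq2 with apeglm shrinkage.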

Sequence	shrunken log2 fold change
RRIRVRPPRLPRPRPRPEDSPRP	0.0654
RRIRPRPPRLPRPRPRPFGYPRP	-0.24
RRIRTRPPRLPRPRPRPGEAPRP	0.282
RRIRNRPPRLPRPRPRPTSWPRP	-0.228
RRIRDRPPRLPRPRPRPFLRPRP	0.00895
RRIRNRPPRLPRPRPRPWGMPRP	-0.214
RRIRHRPPRLPRPRPRPILPPRP	0.0147
RRIRTRPPRLPRPRPRPYARPRP	-0.000715
RRIRMRPPRLPRPRPRPISAPRP	0.0396
RRIRARPPRLPRPRPRPKNMPRP	-0.191
RRIRWRPPRLPRPRPRPAQQPRP	-0.00145
RRIRQRPPRLPRPRPRPRATPRP	0.138
RRIRKRPPRLPRPRPRPADIPRP	-0.075
RRIRSRPPRLPRPRPRPAIHPRP	-0.912
RRIRVRPPRLPRPRPRPNDNPRP	-0.481
RRIRERPPRLPRPRPRPKCWPRP	0.23
RRIRNRPPRLPRPRPRPGIFPRP	-0.0122
RRIRCRPPRLPRPRPRPGIAPRP	0.201
RRIRIRPPRLPRPRPRPYTSPRP	-0.434
RRIRFRPPRLPRPRPRPAVLPRP	0.107

Sequence	shrunken log2 fold change
RRIRARPPRLPRPRPRPPMGPRP	0.358
RRIRTRPPRLPRPRPRPNIDPRP	-0.32
RRIRIRPPRLPRPRPRPNIGPRP	-0.358
RRIRNRPPRLPRPRPRPKCLPRP	0.0771
RRIRTRPPRLPRPRPRPLCLPRP	-0.433
RRIRARPPRLPRPRPRPVFQPRP	0.000109
RRIRERPPRLPRPRPRPYGRPRP	-0.264
RRIRKRPPRLPRPRPRPKPCPRP	0.0204
RRIRSRPPRLPRPRPRPTHPPRP	0.298
RRIRERPPRLPRPRPRPEVEPRP	-0.0864
RRIRTRPPRLPRPRPRPAKTPRP	0.117
RRIRTRPPRLPRPRPRPQHTPRP	-0.733
RRIRNRPPRLPRPRPRPFCSPRP	-0.0765
RRIRERPPRLPRPRPRPETHPRP	0.178
RRIRWRPPRLPRPRPRPYRGPRP	-0.0785
RRIRHRPPRLPRPRPRPHYHPRP	-0.785
RRIRERPPRLPRPRPRPTDEPRP	-0.0552
RRIRVRPPRLPRPRPRPHFEPRP	0.193
RRIRIRPPRLPRPRPRPKTTPRP	-0.301
RRIRARPPRLPRPRPRPDCTPRP	0.27

Sequence	shrunken log2 fold change
RRIRIRPPRLPRPRPRPMTGPRP	-0.4
RRIRRRPPRLPRPRPRPTCQPRP	0.775
RRIRTRPPRLPRPRPRPQWVPRP	0.143
RRIRLRPPRLPRPRPRPMRDPRP	0.336
RRIRGRPPRLPRPRPRPRMMPRP	0.882
RRIRFRPPRLPRPRPRPRQDPRP	0.253
RRIRMRPPRLPRPRPRPRSLPRP	0.27
RRIRLRPPRLPRPRPRPQDAPRP	0.0335
RRIRNRPPRLPRPRPRPCPAPRP	0.203
RRIRKRPPRLPRPRPRPDRCPRP	0.00281
RRIRVRPPRLPRPRPRPMWTPRP	-0.0192
RRIRIRPPRLPRPRPRPFCDPRP	-0.0745
RRIRRRPPRLPRPRPRPGHPPRP	0.237
RRIRKRPPRLPRPRPRPGEYPRP	0.156
RRIRARPPRLPRPRPRPTFHPRP	0.177
RRIRIRPPRLPRPRPRPVSSPRP	-0.213
RRIRPRPPRLPRPRPRPRIKPRP	-0.138
RRIRLRPPRLPRPRPRPSPIPRP	-0.0508
RRIRGRPPRLPRPRPRPYYCPRP	-0.172
RRIRLRPPRLPRPRPRPQQWPRP	-0.0673
